Test results as given in PMC5418834, “Structural analysis of X-linked retinoschisis mutations reveals distinct classes which differentially effect retinoschisin function” (Human Molecular Genetics, 2016).
Substitutions are numbered along the chain they refer to. Numbers in names are those of the source. Where “and” joins values, the source holds several entries; their conditions need not be identical. Identical values can stand only once. Values belong to the molecule of their own block, whether it stands above or below them.

What was measured:
[1] = target: wild-type human retinoschisin (human) (UniProt O15537); assay: SEC-MALS; octamer fraction; 10 mM Tris pH 7.4, 150 mM NaCl
[2] = target: wild-type human retinoschisin (human) (UniProt O15537); assay: native gel or EMSA; blue-native PAGE and native blot of purified retinoschisin (H207Q at ~0.1 mg/ml)
[3] = target: wild-type human retinoschisin (human) (UniProt O15537); assay: negative-stain EM; 20 µg/ml octamer on carbon coated grids, uranyl acetate, reference-free class averages
[4] = target: wild-type human retinoschisin (human) (UniProt O15537); assay: cryo-EM structure; 0.1 mg/ml of octamer vitrified on C-Flat R2/2 grids; C8 (wild type) or D8 (R141H) symmetry
[5] = target: wild-type human retinoschisin (human) (UniProt O15537); assay: AUC; sedimentation velocity of the octamer fraction, ~0.1 mg/ml, 10 mM Tris pH 7.4, 150 mM NaCl, 20°C, 45,000 rpm
[6] = target: the molecule itself; assay: SEC-MALS; octamer fraction; 10 mM Tris pH 7.4, 150 mM NaCl
[7] = target: the molecule itself; assay: native gel or EMSA; blue-native PAGE and native blot of purified retinoschisin (H207Q at ~0.1 mg/ml)
[8] = target: the molecule itself; assay: negative-stain EM; 20 µg/ml octamer on carbon coated grids, uranyl acetate, reference-free class averages

stoichiometry N [1]: 8 | stoichiometry N [2]: 8 and 16 | stoichiometry N [3]: 8 | stoichiometry N [4]: 8 and 16 | stoichiometry N [5]: 8
Molecule: wild-type human retinoschisin (from UniProt O15537 24-224) (natural protein)

B1: R141H human retinoschisin (natural protein, UniProt O15537 24-224, looked up)
chain: STEDEGEDPWYQKACKCDCQGGPNALWSAGATSLDCIPECPYHKPLGFESGEVTPDQITCSNPEQYVGWYSSWTANKARLNSQGFGCAWLSKFQDSSQWLQIDLKEIKVISGILTQGHCDIDEWMTKYSVQYRTDERLNWIYYKDQTGNNRVFYGNSDRTSTVQNLLRPPIISRFIRLIPLGWHVRIAIRMELLECVSKCA
notes: retinoschisin, human, product of the RS1 gene, with the XLRS-associated mutation R141H; Disease-causing (XLRS) mutation that occurs in patients; Same construct as m1 apart from the mutation; also called R141H retinoschisin; R141H mutant
stoichiometry N [6]: 8 | stoichiometry N [7]: 16

B2: H207Q human retinoschisin (natural protein, UniProt O15537 24-224, looked up)
chain: B1 chain with H118R, H184Q
notes: retinoschisin, human, product of the RS1 gene, with the XLRS-associated mutation H207Q; Disease-causing (XLRS) mutation that occurs in patients; Same construct as m1 apart from the mutation; also called H207Q retinoschisin; H207Q mutant
stoichiometry N [7]: 16 | stoichiometry N [8]: 8
